Data taken from PMC7793260, “MreC and MreD balance the interaction between the elongasome proteins PBP2 and RodA” (PLoS Genetics, 2020).
Changes are numbered by the printed parent chain.

Columns and labels:
Experiment in all cases: FRET or BRET; two-plasmid spectral FRET in E. coli LMC500 cells; mCherry fusion as acceptor, mKO fusion as donor; Gb4 medium, steady state at 28 C, 15 uM IPTG for two mass doublings, FAGA-fixed; acceptor FRET efficiency (EfA) by spectral unmixing
[1] = biological target: T1, PBP2 (wild type), fused to mKO or to mCherry (E. coli, UniProt P0AD65 1-633); conditions: partners not purified
T1 construct: PBP2, peptidoglycan transpeptidase of the E. coli elongasome, wild type; mKO-PBP2 in all others; also called mKO-PBP2^WT; mKO-PBP2; source: E. coli LMC500, expressed from plasmid (15 uM IPTG), in fixed cells; not shown: mKO (donor construct, pWA004) or mCherry (acceptor construct), N-terminal, kept
T1 sequence (looked up): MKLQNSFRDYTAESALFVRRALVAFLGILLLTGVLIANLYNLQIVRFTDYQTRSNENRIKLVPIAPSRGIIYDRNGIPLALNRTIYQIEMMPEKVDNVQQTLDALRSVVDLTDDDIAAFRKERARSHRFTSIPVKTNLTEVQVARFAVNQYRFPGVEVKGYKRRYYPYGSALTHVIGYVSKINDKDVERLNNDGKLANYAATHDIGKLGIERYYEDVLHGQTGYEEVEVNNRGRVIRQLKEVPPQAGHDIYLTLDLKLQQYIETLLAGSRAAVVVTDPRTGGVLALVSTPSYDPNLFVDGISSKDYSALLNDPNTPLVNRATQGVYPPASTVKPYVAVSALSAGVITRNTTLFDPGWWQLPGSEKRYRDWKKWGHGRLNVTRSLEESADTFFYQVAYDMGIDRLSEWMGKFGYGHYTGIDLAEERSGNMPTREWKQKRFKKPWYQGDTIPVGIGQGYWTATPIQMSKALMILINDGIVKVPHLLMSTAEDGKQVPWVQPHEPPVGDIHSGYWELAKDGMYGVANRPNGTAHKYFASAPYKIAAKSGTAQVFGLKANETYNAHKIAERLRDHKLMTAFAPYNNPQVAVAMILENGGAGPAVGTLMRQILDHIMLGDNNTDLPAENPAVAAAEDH

mKO-PBP2^S330C = biological target: T2, mKO-PBP2^S330C (E. coli, UniProt P0AD65 1-633, S330C); conditions: partners not purified
T2 construct: made from pWA004 by mutagenesis PCR; source: E. coli LMC500, expressed from plasmid (15 uM IPTG), in fixed cells; not shown: mKO, N-terminal, kept
T2 sequence (looked up): T1 sequence (looked up) with S330C

mKO-^MalF37PBP2 = biological target: T3, mKO-^MalF37PBP2 (E. coli, UniProt P02916 1-37; P0AD65 46-633); conditions: partners not purified
T3 construct: MalF of E. coli, the first 37 residues (cytoplasmic N-terminus and transmembrane helix), amplified from the MG1655 genome; PBP2 of E. coli excluding the first 45 residues (NT and TMH removed, periplasmic domain kept); also called PBP2 with the NT and TMH of MalF; source: E. coli LMC500, expressed from plasmid (15 uM IPTG), in fixed cells; not shown: mKO, N-terminal, kept
T3 chain (looked up): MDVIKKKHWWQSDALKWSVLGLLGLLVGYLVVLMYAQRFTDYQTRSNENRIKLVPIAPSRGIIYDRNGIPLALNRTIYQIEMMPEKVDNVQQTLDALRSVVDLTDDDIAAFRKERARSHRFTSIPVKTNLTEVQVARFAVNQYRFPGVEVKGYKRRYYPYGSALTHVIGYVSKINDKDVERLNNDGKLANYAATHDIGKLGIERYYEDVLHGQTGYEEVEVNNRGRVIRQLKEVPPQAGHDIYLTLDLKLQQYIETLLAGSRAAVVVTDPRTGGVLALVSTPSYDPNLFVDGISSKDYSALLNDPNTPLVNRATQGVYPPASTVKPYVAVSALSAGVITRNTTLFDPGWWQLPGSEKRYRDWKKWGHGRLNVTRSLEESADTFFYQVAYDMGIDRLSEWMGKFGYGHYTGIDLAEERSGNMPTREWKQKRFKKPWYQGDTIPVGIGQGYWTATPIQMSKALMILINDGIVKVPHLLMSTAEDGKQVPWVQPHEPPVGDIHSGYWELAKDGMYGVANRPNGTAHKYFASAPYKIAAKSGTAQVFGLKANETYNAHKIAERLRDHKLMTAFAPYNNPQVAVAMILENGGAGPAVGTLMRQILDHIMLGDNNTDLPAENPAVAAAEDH

[2] = biological target: the molecule itself

- EfA (acceptor FRET efficiency) [1]: 12.7%
- EfA (acceptor FRET efficiency) (mKO-PBP2^S330C): 10.2%
- EfA (acceptor FRET efficiency) (mKO-^MalF37PBP2): 8.2%
B1: RodA (wild type), fused to mCherry or to mKO (enzyme, E. coli, UniProt P0ABG7 1-370, looked up)
chain: MTDNPNKKTFWDKVHLDPTMLLILLALLVYSALVIWSASGQDIGMMERKIGQIAMGLVIMVVMAQIPPRVYEGWAPYLYIICIILLVAVDAFGAISKGAQRWLDLGIVRFQPSEIAKIAVPLMVARFINRDVCPPSLKNTGIALVLIFMPTLLVAAQPDLGTSILVALSGLFVLFLSGLSWRLIGVAVVLVAAFIPILWFFLMHDYQRQRVMMLLDPESDPLGAGYHIIQSKIAIGSGGLRGKGWLHGTQSQLEFLPERHTDFIFAVLAEELGLVGILILLALYILLIMRGLWIAARAQTTFGRVMAGGLMLILFVYVFVNIGMVSGILPVVGVPLPLVSYGGSALIVLMAGFGIVMSIHTHRKMLSKSV
notes: RodA, peptidoglycan glycosyltransferase of the E. coli elongasome; wild-type rodA gene; mCh-RodA in all others; also called mCh-RodA; mKO-RodA; source: E. coli LMC500, expressed from plasmid (15 uM IPTG), in fixed cells; not shown: mCherry (acceptor construct, pSAV047-RodA) or mKO (donor construct, pXL56), N-terminal, kept
- EfA (acceptor FRET efficiency) [2]: 5.5%
